This assay concerns the target T1, Recombinant human IZUMO1 ectodomain (residues 22-254) (human, UniProt Q8IYV9 22-254).
T1 construct: IZUMO1, human, UniProt Q8IYV9, residues 22-254 (ectodomain); The construct has an N-terminal BiP signal peptide for secretion and a thrombin cleavage site before the C-terminal 10xHis tag; In the bead assay the tag was probably cleaved, since the beads capture His tags (surmise); also called rIZUMO1; IZUMO1 (residues 22-254); source: Drosophila S2 cells, stably transfected, secreted; purified …
The assay can be described thus: SPR; Nicoya Alto digital SPR, single-cycle kinetics, 25 °C; biotinylated JUNO (800 nM) immobilised as bait on streptavidin-coated carboxyl PEG cartridge; IZUMO1 as analyte at 1000, 333, 111, 37 and 12.3 nM; PBS pH 7.4, 0.05% Tween-20; technical triplicate. The settings on record: both partners purified.

T1 sequence (Q8IYV9 22-254): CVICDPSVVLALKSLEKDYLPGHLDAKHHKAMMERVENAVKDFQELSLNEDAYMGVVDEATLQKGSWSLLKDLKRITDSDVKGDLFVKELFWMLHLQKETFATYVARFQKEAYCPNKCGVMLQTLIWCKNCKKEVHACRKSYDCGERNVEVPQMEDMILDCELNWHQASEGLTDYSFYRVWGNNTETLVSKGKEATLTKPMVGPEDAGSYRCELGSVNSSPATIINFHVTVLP

B1: Human JUNO ectodomain (residues 20-228), biotinylated (domain or fragment, UniProt A6ND01 20-228, looked up)
chain: GDELLNICMNAKHHKRVPSPEDKLYEECIPWKDNACCTLTTSWEAHLDVSPLYNFSLFHCGLLMPGCRKHFIQAICFYECSPNLGPWIQPVGSLGWEVAPSGQGERVVNVPLCQEDCEEWWEDCRMSYTCKSNWRGGWDWSQGKNRCPKGAQCLPFSHYFPTPADLCEKTWSNSFKASPERRNSGRCLQKWFEPAQGNPNVAVARLFAS
modifications: biotin (EZ-link Sulfo-NHS-LC-Biotin, 1:1 molar ratio); glycosylated
notes: JUNO, human, UniProt A6ND01, residues 20-228 (ectodomain); The construct has an N-terminal BiP signal peptide for secretion and a thrombin cleavage site before the C-terminal 10xHis tag; also called recombinant JUNO; rhJUNO; source: Drosophila S2 cells, stably transfected, secreted; purified (Ni-NTA, SEC)
Regarding B1, the Kd is 37.6 nM, the koff stood at 0.00387 s⁻¹ and the kon stood at 103000 M⁻¹ s⁻¹.

(Values after article PMC12961186, “JUNO-coated beads as a functional assay to capture and characterize fertilization-competent human sperm” (Human Reproduction Open, 2026).)
